Usually Kd stands for the constant that tells how readily two partners part at equilibrium. A low value points to a tighter complex. As usually defined, the koff is the first-order rate constant of dissociation. As a reminder, the kon is the rate constant with which the complex forms. A higher kon goes with fast association.

The record followed here is US20190202914A1.

The assay deals with cynoCTLA-4-his protein (CT4-05227, AcroBio) (cyno) (UniProt G7PL88). The assay is described as follows: SPR, Biacore T200, antibody immobilised, CTLA-4-his injected, 1:1 model. For orientation: In SPR one partner is held on a chip, and binding of the other changes the refractive index at the surface.

B1: CL5′-dPTM′ (antibody, human IgG1, V domains shown)
VH: EVQLVESGGGLIQPGGSLRLSCAVSGFTVSKNYMSWVRQAPGKGLEWVSVVYSGGSKTYADSVKGRFTISRDNSKNTLYLQMNSLRAEDTAVYYCARAVPHSPSSFDIWGQGTMVTVSS
B1 registered a Kd of 0.0591 nM, a koff of 0.000308 s⁻¹ and a kon of 5.21e+06 M⁻¹ s⁻¹.

B2: CL5′-eA-dPTM′ (antibody, human IgG1, V domains shown)
VH: B1 VH
In the case of B2, the Kd was 0.0243 nM, the koff was found to be 0.00011 s⁻¹ and the kon is 4.55e+06 M⁻¹ s⁻¹.
